Data as given in article PMC6021170.

Legend:
[1] = western blot of cell lysates, HEK293; settings: glycan lost; control: PT-WT
[2] = western blot of conditioned medium, HEK293; settings: glycan lost; control: PT-WT
[3] = ELISA of cell lysates, endogenous prothrombin, HepG2; settings: glycan changed form; control: untreated HepG2 cells
[4] = ELISA of conditioned medium, endogenous prothrombin, HepG2; settings: glycan changed form; control: untreated HepG2 cells
[5] = confocal co-staining after 4 hr CHX; settings: glycan lost; control: WT corin
[6] = confocal co-staining with or without CHX; settings: glycan lost; control: WT corin
[7] = cycloheximide chase, lysate western blot; settings: glycan lost; control: WT corin
[8] = western blot of cell lysates, zymogen bands; settings: glycan lost
[9] = western blot, cleaved Corin-p band in lysate; settings: glycan lost; control: WT corin
[10] = Endo H sensitive/resistant band ratio after 4 hr CHX; settings: glycan lost; control: WT corin
[11] = cell surface biotinylation, western blot densitometry; settings: glycan lost
[12] = western blot of cell lysates; settings: glycan lost
[13] = western blot of conditioned medium; settings: glycan lost
[14] = molecular target: enteropeptidase mutant EK-4Q (human) (UniProt P00734); assay: co-IP; lysates of transfected HEK293 cells immunoprecipitated with anti-V5 antibody and protein A-Sepharose; co-precipitated endogenous chaperones detected by western blotting and densitometry; cells without or with DNJ (2 mM, 37°C, 24-48 hr)
[15] = molecular target: prothrombin mutant PT-N416Q (human) (UniProt P98073); assay: as above
Chain of UniProt P98073 (P98073 whole entry, stated change not applied): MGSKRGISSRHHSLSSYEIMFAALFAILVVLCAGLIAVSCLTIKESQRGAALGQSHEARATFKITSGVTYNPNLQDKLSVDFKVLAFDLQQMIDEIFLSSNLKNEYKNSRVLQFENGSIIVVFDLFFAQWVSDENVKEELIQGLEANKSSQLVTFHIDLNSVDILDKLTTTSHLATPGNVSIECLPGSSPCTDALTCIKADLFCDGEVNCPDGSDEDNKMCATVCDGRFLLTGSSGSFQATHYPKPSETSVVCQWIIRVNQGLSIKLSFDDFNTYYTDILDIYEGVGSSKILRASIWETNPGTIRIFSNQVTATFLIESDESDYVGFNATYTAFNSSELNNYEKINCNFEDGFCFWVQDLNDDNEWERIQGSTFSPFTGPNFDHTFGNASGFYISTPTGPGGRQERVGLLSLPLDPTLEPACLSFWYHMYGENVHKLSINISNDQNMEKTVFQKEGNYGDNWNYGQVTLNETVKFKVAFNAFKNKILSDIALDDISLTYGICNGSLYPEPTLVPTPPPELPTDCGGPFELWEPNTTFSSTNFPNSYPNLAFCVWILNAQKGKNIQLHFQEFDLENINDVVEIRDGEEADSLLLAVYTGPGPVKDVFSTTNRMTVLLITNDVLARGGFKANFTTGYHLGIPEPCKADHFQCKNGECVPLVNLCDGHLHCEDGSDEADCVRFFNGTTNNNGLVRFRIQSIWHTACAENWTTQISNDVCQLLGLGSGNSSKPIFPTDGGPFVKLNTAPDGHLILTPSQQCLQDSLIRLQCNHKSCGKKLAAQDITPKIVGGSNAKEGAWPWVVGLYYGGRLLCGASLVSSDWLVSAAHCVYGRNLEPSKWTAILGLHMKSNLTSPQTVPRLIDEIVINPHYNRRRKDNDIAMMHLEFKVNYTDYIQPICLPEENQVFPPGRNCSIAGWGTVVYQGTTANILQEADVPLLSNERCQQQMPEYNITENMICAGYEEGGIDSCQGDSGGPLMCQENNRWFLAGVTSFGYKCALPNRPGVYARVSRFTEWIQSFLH

[16] = control: sR801A (soluble corin)

With prothrombin (PT): PT-N416Q the expression_or_secretion [1] was “no change” and the “expression_or_secretion, percent_of_wt” value [2] was “decreases”.

For prothrombin (PT): DNJ, the expression_or_secretion [3] was “no change” and the “expression_or_secretion, percent_of_wt” value [4] was “decreases”.

B1: corin: N1022Q (protein)
parent chain: MKQSPALAPEERCRRAGSPKPVLRADDNNMGNGCSQKLATANLLRFLLLVLIPCICALVLLLVILLSYVGTLQKVYFKSNGSEPLVTDGEIQGSDVILTNTIYNQSTVVSTAHPDQHVPAWTTDASLPGDQSHRNTSACMNITHSQCQMLPYHATLTPLLSVVRNMEMEKFLKFFTYLHRLSCYQHIMLFGCTLAFPECIIDGDDSHGLLPCRSFCEAAKEGCESVLGMVNYSWPDFLRCSQFRNQTESSNVSRICFSPQQENGKQLLCGRGENFLCASGICIPGKLQCNGYNDCDDWSDEAHCNCSENLFHCHTGKCLNYSLVCDGYDDCGDLSDEQNCDCNPTTEHRCGDGRCIAMEWVCDGDHDCVDKSDEVNCSCHSQGLVECRNGQCIPSTFQCDGDEDCKDGSDEENCSVIQTSCQEGDQRCLYNPCLDSCGGSSLCDPNNSLNNCSQCEPITLELCMNLPYNSTSYPNYFGHRTQKEASISWESSLFPALVQTNCYKYLMFFSCTILVPKCDVNTGEHIPPCRALCEHSKERCESVLGIVGLQWPEDTDCSQFPEENSDNQTCLMPDEYVEECSPSHFKCRSGQCVLASRRCDGQADCDDDSDEENCGCKERDLWECPSNKQCLKHTVICDGFPDCPDYMDEKNCSFCQDDELECANHACVSRDLWCDGEADCSDSSDEWDCVTLSINVNSSSFLMVHRAATEHHVCADGWQEILSQLACKQMGLGEPSVTKLIQEQEKEPRWLTLHSNWESLNGTTLHELLVNGQSCESRSKISLLCTKQDCGRRPAARMNKRILGGRTSRPGRWPWQCSLQSEPSGHICGCVLIAKKWVLTVAHCFEGRENAAVWKVVLGINNLDHPSVFMQTRFVKTIILHPRYSRAVVDYDISIVELSEDISETGYVRPVCLPNPEQWLEPDTYCYITGWGHMGNKMPFKLQEGEVRIISLEHCQSYFDMKTITTRMICAGYESGTVDSCMGDSGGPLVCEKPGGRWTLFGLTSWGSVCFSKVLGPGVYSNVSYFVEWIKRQIYIQTFLLN
With B1 the “localisation_or_trafficking, other: Pearson's correlation coefficient” value [5] was “increases, 0.35 ± 0.05 vs 0.15 ± 0.06”, the localisation_or_trafficking [6] was “no change” and the “degradation_or_half_life, half_life” value [7] was “increases, 6.1 ± 0.3 vs 3.8 ± 0.4”. The expression_or_secretion ([8]; control: WT corin) was “no change”, the “other: proteolytic processing” value [9] was “decreases” and the localisation_or_trafficking [10] was “changes”. For the same molecule, the “expression_or_secretion, percent_of_wt” value ([11]; control: WT corin) was “decreases”.

B2: corin: sN1022Q (protein)
parent chain: MKQSPALAPEERCRRAGSPKPVLRADDNNMGNGCSQKLATANLLRFLLLVLIPCICALVLLLVILLSYVGTLQKVYFKSNGSEPLVTDGEIQGSDVILTNTIYNQSTVVSTAHPDQHVPAWTTDASLPGDQSHRNTSACMNITHSQCQMLPYHATLTPLLSVVRNMEMEKFLKFFTYLHRLSCYQHIMLFGCTLAFPECIIDGDDSHGLLPCRSFCEAAKEGCESVLGMVNYSWPDFLRCSQFRNQTESSNVSRICFSPQQENGKQLLCGRGENFLCASGICIPGKLQCNGYNDCDDWSDEAHCNCSENLFHCHTGKCLNYSLVCDGYDDCGDLSDEQNCDCNPTTEHRCGDGRCIAMEWVCDGDHDCVDKSDEVNCSCHSQGLVECRNGQCIPSTFQCDGDEDCKDGSDEENCSVIQTSCQEGDQRCLYNPCLDSCGGSSLCDPNNSLNNCSQCEPITLELCMNLPYNSTSYPNYFGHRTQKEASISWESSLFPALVQTNCYKYLMFFSCTILVPKCDVNTGEHIPPCRALCEHSKERCESVLGIVGLQWPEDTDCSQFPEENSDNQTCLMPDEYVEECSPSHFKCRSGQCVLASRRCDGQADCDDDSDEENCGCKERDLWECPSNKQCLKHTVICDGFPDCPDYMDEKNCSFCQDDELECANHACVSRDLWCDGEADCSDSSDEWDCVTLSINVNSSSFLMVHRAATEHHVCADGWQEILSQLACKQMGLGEPSVTKLIQEQEKEPRWLTLHSNWESLNGTTLHELLVNGQSCESRSKISLLCTKQDCGRRPAARMNKRILGGRTSRPGRWPWQCSLQSEPSGHICGCVLIAKKWVLTVAHCFEGRENAAVWKVVLGINNLDHPSVFMQTRFVKTIILHPRYSRAVVDYDISIVELSEDISETGYVRPVCLPNPEQWLEPDTYCYITGWGHMGNKMPFKLQEGEVRIISLEHCQSYFDMKTITTRMICAGYESGTVDSCMGDSGGPLVCEKPGGRWTLFGLTSWGSVCFSKVLGPGVYSNVSYFVEWIKRQIYIQTFLLN
For B2, the expression_or_secretion ([12]; control: sWT (soluble corin)) was “no change” and the “expression_or_secretion, percent_of_wt” value ([13]; control: sWT (soluble corin)) was “decreases”.

B3: corin: sR801A/N1022Q (protein)
parent chain: MKQSPALAPEERCRRAGSPKPVLRADDNNMGNGCSQKLATANLLRFLLLVLIPCICALVLLLVILLSYVGTLQKVYFKSNGSEPLVTDGEIQGSDVILTNTIYNQSTVVSTAHPDQHVPAWTTDASLPGDQSHRNTSACMNITHSQCQMLPYHATLTPLLSVVRNMEMEKFLKFFTYLHRLSCYQHIMLFGCTLAFPECIIDGDDSHGLLPCRSFCEAAKEGCESVLGMVNYSWPDFLRCSQFRNQTESSNVSRICFSPQQENGKQLLCGRGENFLCASGICIPGKLQCNGYNDCDDWSDEAHCNCSENLFHCHTGKCLNYSLVCDGYDDCGDLSDEQNCDCNPTTEHRCGDGRCIAMEWVCDGDHDCVDKSDEVNCSCHSQGLVECRNGQCIPSTFQCDGDEDCKDGSDEENCSVIQTSCQEGDQRCLYNPCLDSCGGSSLCDPNNSLNNCSQCEPITLELCMNLPYNSTSYPNYFGHRTQKEASISWESSLFPALVQTNCYKYLMFFSCTILVPKCDVNTGEHIPPCRALCEHSKERCESVLGIVGLQWPEDTDCSQFPEENSDNQTCLMPDEYVEECSPSHFKCRSGQCVLASRRCDGQADCDDDSDEENCGCKERDLWECPSNKQCLKHTVICDGFPDCPDYMDEKNCSFCQDDELECANHACVSRDLWCDGEADCSDSSDEWDCVTLSINVNSSSFLMVHRAATEHHVCADGWQEILSQLACKQMGLGEPSVTKLIQEQEKEPRWLTLHSNWESLNGTTLHELLVNGQSCESRSKISLLCTKQDCGRRPAARMNKRILGGRTSRPGRWPWQCSLQSEPSGHICGCVLIAKKWVLTVAHCFEGRENAAVWKVVLGINNLDHPSVFMQTRFVKTIILHPRYSRAVVDYDISIVELSEDISETGYVRPVCLPNPEQWLEPDTYCYITGWGHMGNKMPFKLQEGEVRIISLEHCQSYFDMKTITTRMICAGYESGTVDSCMGDSGGPLVCEKPGGRWTLFGLTSWGSVCFSKVLGPGVYSNVSYFVEWIKRQIYIQTFLLN
For B3, the expression_or_secretion [12, 16] was “no change” and the “expression_or_secretion, percent_of_wt” value [13, 16] was “decreases”.

B4: corin: R801A/N1022Q (protein)
parent chain: MKQSPALAPEERCRRAGSPKPVLRADDNNMGNGCSQKLATANLLRFLLLVLIPCICALVLLLVILLSYVGTLQKVYFKSNGSEPLVTDGEIQGSDVILTNTIYNQSTVVSTAHPDQHVPAWTTDASLPGDQSHRNTSACMNITHSQCQMLPYHATLTPLLSVVRNMEMEKFLKFFTYLHRLSCYQHIMLFGCTLAFPECIIDGDDSHGLLPCRSFCEAAKEGCESVLGMVNYSWPDFLRCSQFRNQTESSNVSRICFSPQQENGKQLLCGRGENFLCASGICIPGKLQCNGYNDCDDWSDEAHCNCSENLFHCHTGKCLNYSLVCDGYDDCGDLSDEQNCDCNPTTEHRCGDGRCIAMEWVCDGDHDCVDKSDEVNCSCHSQGLVECRNGQCIPSTFQCDGDEDCKDGSDEENCSVIQTSCQEGDQRCLYNPCLDSCGGSSLCDPNNSLNNCSQCEPITLELCMNLPYNSTSYPNYFGHRTQKEASISWESSLFPALVQTNCYKYLMFFSCTILVPKCDVNTGEHIPPCRALCEHSKERCESVLGIVGLQWPEDTDCSQFPEENSDNQTCLMPDEYVEECSPSHFKCRSGQCVLASRRCDGQADCDDDSDEENCGCKERDLWECPSNKQCLKHTVICDGFPDCPDYMDEKNCSFCQDDELECANHACVSRDLWCDGEADCSDSSDEWDCVTLSINVNSSSFLMVHRAATEHHVCADGWQEILSQLACKQMGLGEPSVTKLIQEQEKEPRWLTLHSNWESLNGTTLHELLVNGQSCESRSKISLLCTKQDCGRRPAARMNKAILGGRTSRPGRWPWQCSLQSEPSGHICGCVLIAKKWVLTVAHCFEGRENAAVWKVVLGINNLDHPSVFMQTRFVKTIILHPRYSRAVVDYDISIVELSEDISETGYVRPVCLPNPEQWLEPDTYCYITGWGHMGNKMPFKLQEGEVRIISLEHCQSYFDMKTITTRMICAGYESGTVDSCMGDSGGPLVCEKPGGRWTLFGLTSWGSVCFSKVLGPGVYSNVSYFVEWIKRQIYIQTFLLN
For B4, the expression_or_secretion ([8]; control: R801A corin) was “no change” and the “expression_or_secretion, percent_of_wt” value ([11]; control: R801A corin) was “decreases”.

B5: calnexin (natural protein)
chain: HDGHDDDVIDIEDDLDDVIEEVEDSKPDTTAPPSSPKVTYKAPVPTGEVYFADSFDRGTLSGWILSKAKKDDTDDEIAKYDGKWEVEEMKESKLPGDKGLVLMSRAKHHAISAKLNKPFLFDTKPLIVQYEVNFQNGIECGGAYVKLLSKTPELNLDQFHDKTPYTIMFGPDKCGEDYKLHFIFRHKNPKTGIYEEKHAKRPDADLKTYFTDKKTHLYTLILNPDNSFEILVDQSVVNSGNLLNDMTPPVNPSREIEDPEDRKPEDWDERPKIPDPEAVKPDDWDEDAPAKIPDEEATKPEGWLDDEPEYVPDPDAEKPEDWDEDMDGEWEAPQIANPRCESAPGCGVWQRPVIDNPNYKGKWKPPMIDNPSYQGIWKPRKIPNPDFFEDLEPFRMTPFSAIGLELWSMTSDIFFDNFIICADRRIVDDWANDGWGLKKAADGAAEPGVVGQMIEAAEERPWLWVVYILTVALPVFLVILFCCSGKKQTSGMEYKKTDAPQPDVKEEEEEKEEEKDKGDEEEEGEEKLEEKQKSDAEEDGGTVSQEEEDRKPKAEEDEILNRSPRNRKPRRE
B5 showed a co-precipitated level, percent of that with EK-WT [14] of 165% and a co-precipitated level, percent of that with PT-WT [15] of 171%.
